According to article PMC8766848, “The Structural Basis of Babesia orientalis Lactate Dehydrogenase” (Frontiers in Cellular and Infection Microbiology, 2022):

Assays:
[1] = system: T1, CC(=O)c1ccc[n+]([C@@H]2O[C@H](COP(=O)([O-])OP(=O)(O)OC[C@H]3O[C@@H](n4cnc5c(N)ncnc54)[C@H](O)[C@@H]3O)[C@@H](O)[C@H]2O)c1; experiment: enzyme kinetics (Km), lactate to pyruvate, comparison enzyme; format: biochemical, Babesia microti; conditions: varied: cofactor
T1 construct: recombinant rBmLDH

[2] = target: recombinant Babesia orientalis lactate dehydrogenase (Babesia orientalis); experiment: crystal structure; apo rBoLDH, hanging drop vapour diffusion at 20°C, 1 M lithium chloride, 0.1 M sodium acetate, 25-30% PEG 6000; space group P1, 2.67 Å
[3] = target: recombinant Babesia orientalis lactate dehydrogenase (Babesia orientalis); experiment: native gel or EMSA; 8% blue native-PAGE of purified rBoLDH, without sodium dodecyl sulfate; ~160 kDa band

Substance	Km [1] [µM]	stoichiometry N [2]	stoichiometry N [3]
Babesia microti lactate dehydrogenase (BmLDH) (Babesia microti strain RI)	880 ± 120		
recombinant Babesia orientalis lactate dehydrogenase (enzyme)		4	4
